Each block holds one sequence with its values, some of them ahead of it.
Experiments:
c-Src SH2 = test: SH2 binding enrichment of the phosphorylated peptide, bacterial display (enrichment ratio); higher = better substrate or ligand; peptides without Tyr show the background
SHP2-C SH2 = test: as above
Grb2 SH2 = Grb2 SH2 (UniProt P62993); test: as above
FGFR3 = FGFR3 (UniProt P22607); test: phosphorylation enrichment, bacterial display (enrichment ratio); higher = better substrate or ligand; peptides without Tyr show the background
FGFR1 = FGFR1 (UniProt P11362); test: as above
AncSZ = test: as above
Jak2 = Jak2 (UniProt O60674); test: as above
Sequence of Jak2 (O60674 whole entry, looked up): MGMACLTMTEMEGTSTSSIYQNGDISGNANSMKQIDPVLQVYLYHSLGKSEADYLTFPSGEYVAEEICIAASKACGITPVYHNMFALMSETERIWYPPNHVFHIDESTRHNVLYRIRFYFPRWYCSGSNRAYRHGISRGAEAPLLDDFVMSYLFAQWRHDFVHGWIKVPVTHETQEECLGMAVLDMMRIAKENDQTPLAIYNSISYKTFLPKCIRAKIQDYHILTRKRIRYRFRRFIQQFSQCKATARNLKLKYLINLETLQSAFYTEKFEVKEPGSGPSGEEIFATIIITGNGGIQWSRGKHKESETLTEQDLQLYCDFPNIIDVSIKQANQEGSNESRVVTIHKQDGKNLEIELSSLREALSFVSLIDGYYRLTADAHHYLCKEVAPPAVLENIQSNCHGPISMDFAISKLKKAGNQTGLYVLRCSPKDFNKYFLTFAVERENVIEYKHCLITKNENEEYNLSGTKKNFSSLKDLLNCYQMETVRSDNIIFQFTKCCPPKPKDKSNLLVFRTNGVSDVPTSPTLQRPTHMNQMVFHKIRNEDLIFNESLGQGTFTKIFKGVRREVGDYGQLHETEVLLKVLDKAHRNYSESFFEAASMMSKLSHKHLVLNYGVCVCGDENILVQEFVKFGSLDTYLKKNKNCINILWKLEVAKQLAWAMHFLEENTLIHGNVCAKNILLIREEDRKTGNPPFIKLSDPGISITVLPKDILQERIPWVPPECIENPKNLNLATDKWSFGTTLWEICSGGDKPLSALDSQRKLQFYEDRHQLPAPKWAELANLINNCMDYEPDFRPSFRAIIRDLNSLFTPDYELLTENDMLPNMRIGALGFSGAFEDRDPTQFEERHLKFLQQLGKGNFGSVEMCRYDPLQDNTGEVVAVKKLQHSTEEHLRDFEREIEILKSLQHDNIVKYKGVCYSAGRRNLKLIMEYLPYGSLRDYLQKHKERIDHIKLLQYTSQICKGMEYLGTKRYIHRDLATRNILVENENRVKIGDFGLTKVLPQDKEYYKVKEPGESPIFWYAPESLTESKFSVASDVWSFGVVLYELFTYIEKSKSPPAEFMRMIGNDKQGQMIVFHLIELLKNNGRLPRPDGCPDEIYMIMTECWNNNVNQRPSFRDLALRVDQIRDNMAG

MERTK = MERTK (UniProt Q12866); test: as above
Sequence of MERTK (Q12866 whole entry, looked up): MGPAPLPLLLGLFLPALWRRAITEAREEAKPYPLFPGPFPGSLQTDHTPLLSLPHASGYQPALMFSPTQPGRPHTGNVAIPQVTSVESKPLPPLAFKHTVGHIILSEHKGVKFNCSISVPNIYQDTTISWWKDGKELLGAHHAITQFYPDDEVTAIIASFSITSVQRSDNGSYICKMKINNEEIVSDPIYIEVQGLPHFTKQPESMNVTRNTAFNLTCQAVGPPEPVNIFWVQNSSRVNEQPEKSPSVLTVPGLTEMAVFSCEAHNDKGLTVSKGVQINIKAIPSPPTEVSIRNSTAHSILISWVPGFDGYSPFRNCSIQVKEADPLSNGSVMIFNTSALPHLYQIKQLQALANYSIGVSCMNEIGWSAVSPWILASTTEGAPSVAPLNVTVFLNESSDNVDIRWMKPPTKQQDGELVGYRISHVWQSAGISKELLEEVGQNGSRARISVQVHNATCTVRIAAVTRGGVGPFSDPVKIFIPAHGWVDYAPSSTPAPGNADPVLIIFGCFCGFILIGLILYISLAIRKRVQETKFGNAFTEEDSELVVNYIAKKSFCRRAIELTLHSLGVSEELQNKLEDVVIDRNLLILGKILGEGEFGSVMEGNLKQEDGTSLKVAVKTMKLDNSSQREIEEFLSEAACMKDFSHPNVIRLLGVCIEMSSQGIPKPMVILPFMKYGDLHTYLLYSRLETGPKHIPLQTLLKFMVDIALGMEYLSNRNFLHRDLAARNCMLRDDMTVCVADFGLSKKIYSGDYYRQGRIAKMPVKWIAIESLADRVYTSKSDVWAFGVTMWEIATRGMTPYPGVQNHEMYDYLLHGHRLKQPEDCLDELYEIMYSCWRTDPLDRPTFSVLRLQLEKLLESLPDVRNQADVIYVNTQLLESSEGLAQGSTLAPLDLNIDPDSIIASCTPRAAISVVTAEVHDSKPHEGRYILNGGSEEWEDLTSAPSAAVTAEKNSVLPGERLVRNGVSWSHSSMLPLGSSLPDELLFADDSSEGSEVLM

Hck = Hck (UniProt P08631); test: as above
Sequence of Hck (P08631 whole entry, looked up): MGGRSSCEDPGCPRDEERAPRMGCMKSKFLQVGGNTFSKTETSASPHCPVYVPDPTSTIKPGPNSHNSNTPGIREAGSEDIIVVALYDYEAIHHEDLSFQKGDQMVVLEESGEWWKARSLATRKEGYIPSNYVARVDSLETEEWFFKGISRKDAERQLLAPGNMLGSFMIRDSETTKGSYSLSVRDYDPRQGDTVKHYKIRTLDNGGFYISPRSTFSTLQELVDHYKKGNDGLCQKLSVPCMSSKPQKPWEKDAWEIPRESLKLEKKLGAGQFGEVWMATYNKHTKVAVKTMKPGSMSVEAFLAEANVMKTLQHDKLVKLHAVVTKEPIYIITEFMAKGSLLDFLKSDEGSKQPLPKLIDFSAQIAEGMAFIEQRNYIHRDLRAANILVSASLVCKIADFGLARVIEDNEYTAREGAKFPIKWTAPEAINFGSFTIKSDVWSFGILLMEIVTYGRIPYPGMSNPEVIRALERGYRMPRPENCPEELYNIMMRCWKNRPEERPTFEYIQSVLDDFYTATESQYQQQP

Fer (mouse) = test: as above
Fyn = Fyn (UniProt P06241); test: as above
Sequence of Fyn (P06241 whole entry, looked up): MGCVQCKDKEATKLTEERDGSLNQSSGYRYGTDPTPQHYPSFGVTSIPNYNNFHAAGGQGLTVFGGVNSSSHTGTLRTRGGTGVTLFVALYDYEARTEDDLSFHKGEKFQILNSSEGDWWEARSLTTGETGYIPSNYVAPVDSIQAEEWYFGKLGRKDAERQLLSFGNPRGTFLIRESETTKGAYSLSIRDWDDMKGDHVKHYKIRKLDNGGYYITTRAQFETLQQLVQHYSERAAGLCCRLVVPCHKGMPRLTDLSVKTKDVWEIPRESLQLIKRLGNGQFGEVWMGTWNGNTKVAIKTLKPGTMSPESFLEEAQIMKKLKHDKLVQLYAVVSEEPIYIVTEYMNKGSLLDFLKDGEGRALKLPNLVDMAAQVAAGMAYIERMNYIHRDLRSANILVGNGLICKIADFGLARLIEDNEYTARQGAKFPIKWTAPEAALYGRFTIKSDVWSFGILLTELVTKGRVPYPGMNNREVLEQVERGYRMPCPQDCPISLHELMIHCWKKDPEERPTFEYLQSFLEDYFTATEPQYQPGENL

c-Src = test: as above
c-Abl (mouse) = test: as above
EPHB1 = EPHB1 (UniProt P54762); test: as above
Fes = Fes (UniProt P07332); test: as above
Sequence of Fes (P07332 whole entry, looked up): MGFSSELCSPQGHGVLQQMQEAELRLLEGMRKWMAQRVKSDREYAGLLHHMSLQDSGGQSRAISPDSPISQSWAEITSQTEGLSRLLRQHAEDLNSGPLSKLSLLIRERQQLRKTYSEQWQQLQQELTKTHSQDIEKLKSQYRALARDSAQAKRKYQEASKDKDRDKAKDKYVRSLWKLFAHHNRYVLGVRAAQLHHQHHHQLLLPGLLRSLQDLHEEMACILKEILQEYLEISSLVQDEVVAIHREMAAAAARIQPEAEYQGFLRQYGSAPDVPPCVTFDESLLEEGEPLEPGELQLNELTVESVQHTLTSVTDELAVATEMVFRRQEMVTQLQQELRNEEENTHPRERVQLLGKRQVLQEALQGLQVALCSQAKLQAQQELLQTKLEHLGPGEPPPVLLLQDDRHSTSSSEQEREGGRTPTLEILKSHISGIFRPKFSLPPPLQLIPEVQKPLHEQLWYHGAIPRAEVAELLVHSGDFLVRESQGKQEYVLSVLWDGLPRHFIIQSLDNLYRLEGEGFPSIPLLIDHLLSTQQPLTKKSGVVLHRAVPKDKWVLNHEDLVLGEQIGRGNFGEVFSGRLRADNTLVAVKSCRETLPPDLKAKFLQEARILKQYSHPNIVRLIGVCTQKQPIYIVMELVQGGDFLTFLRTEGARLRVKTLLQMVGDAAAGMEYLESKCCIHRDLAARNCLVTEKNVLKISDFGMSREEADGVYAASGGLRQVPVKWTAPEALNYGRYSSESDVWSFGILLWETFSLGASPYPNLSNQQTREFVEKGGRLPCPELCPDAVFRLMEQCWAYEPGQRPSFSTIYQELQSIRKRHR

EPHB2 = EPHB2 (UniProt P29323); test: as above
Sequence of EPHB2 (P29323 whole entry, looked up, the tested form may be a part): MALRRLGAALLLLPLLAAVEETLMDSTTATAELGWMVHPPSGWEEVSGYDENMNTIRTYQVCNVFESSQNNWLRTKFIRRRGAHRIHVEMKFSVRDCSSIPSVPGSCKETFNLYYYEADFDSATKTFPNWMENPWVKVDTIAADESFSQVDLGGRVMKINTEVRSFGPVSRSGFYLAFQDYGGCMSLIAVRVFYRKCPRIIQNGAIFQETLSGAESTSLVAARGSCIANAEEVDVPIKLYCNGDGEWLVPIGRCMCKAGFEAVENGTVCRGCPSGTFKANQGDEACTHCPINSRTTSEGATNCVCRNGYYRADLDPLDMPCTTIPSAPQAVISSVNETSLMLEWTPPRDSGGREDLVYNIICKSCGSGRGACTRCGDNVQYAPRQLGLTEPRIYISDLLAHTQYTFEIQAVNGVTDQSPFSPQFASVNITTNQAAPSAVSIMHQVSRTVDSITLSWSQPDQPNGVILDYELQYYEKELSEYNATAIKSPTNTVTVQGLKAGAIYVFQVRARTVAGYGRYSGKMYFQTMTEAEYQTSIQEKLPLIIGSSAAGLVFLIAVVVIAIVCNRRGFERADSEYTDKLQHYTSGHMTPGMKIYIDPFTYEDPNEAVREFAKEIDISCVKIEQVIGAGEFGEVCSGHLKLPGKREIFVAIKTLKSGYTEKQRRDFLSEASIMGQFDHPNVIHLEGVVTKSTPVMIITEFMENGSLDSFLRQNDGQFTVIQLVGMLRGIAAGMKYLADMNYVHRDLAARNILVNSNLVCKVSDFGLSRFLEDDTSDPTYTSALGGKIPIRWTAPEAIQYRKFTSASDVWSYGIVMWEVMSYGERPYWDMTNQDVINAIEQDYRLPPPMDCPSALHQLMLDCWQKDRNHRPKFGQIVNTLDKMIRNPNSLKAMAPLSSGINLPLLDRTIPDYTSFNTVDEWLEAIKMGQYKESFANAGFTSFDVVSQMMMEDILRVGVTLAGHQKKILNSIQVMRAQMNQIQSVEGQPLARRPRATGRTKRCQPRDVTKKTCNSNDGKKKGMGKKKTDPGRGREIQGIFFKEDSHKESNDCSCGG
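For SH2 binding enrichment of the phosphorylated peptide, bacterial display in this document: peptide library displayed on the E. coli surface as eCPX fusions, selected cells deep-sequenced, score is each peptide's frequency after selection divided by its frequency in the input.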
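For phosphorylation enrichment, bacterial display in this document: 11-residue human phosphosite peptides and single-mutation variants displayed on the E. coli surface, counted by deep sequencing, each peptide's frequency after selection divided by its frequency in the unselected input library; frequency after pTyr selection over input frequency; kinase dosed for 20-30% of maximal phosphorylation in three min.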

SH2 binding enrichment (c-Src SH2): 0.601
SH2 binding enrichment (SHP2-C SH2): 0.724
SH2 binding enrichment (Grb2 SH2): 0.841
Sequence: PDSVDYPKKGY [CTSK_Y121_R122P]
phosphorylation enrichment (FGFR3): 0.654
phosphorylation enrichment (FGFR1): 0.56
phosphorylation enrichment (AncSZ): 0.917
phosphorylation enrichment (Jak2): 0.707
phosphorylation enrichment (MERTK): 0.537
phosphorylation enrichment (Hck): 0.614
phosphorylation enrichment (Fer (mouse)): 0.832
phosphorylation enrichment (Fyn): 0.759
phosphorylation enrichment (c-Src): 0.569
phosphorylation enrichment (c-Abl (mouse)): 0.544
phosphorylation enrichment (EPHB1): 0.529
phosphorylation enrichment (Fes): 0.654
phosphorylation enrichment (EPHB2): 0.951

SH2 binding enrichment (c-Src SH2): 0.561
SH2 binding enrichment (SHP2-C SH2): 0.666
SH2 binding enrichment (Grb2 SH2): 0.829
Sequence: EWKQNYEESQS [MYH7_Y1460_K1459N]
phosphorylation enrichment (FGFR3): 0.692
phosphorylation enrichment (FGFR1): 0.546
phosphorylation enrichment (AncSZ): 1.16
phosphorylation enrichment (Jak2): 1.32
phosphorylation enrichment (MERTK): 0.497
phosphorylation enrichment (Hck): 0.605
phosphorylation enrichment (Fer (mouse)): 0.792
phosphorylation enrichment (Fyn): 0.481
phosphorylation enrichment (c-Src): 0.461
phosphorylation enrichment (c-Abl (mouse)): 0.967
phosphorylation enrichment (EPHB1): 0.542
phosphorylation enrichment (Fes): 1.25
phosphorylation enrichment (EPHB2): 0.664

SH2 binding enrichment (c-Src SH2): 0.985
SH2 binding enrichment (SHP2-C SH2): 1.31
SH2 binding enrichment (Grb2 SH2): 1.04
Sequence: IRTIDYRYTVW [IDS_Y497]
phosphorylation enrichment (FGFR3): 0.732
phosphorylation enrichment (FGFR1): 0.554
phosphorylation enrichment (AncSZ): 1.15
phosphorylation enrichment (Jak2): 0.929
phosphorylation enrichment (MERTK): 0.422
phosphorylation enrichment (Hck): 0.535
phosphorylation enrichment (Fer (mouse)): 0.57
phosphorylation enrichment (Fyn): 0.493
phosphorylation enrichment (c-Src): 0.398
phosphorylation enrichment (c-Abl (mouse)): 0.695
phosphorylation enrichment (EPHB1): 0.666
phosphorylation enrichment (Fes): 1.16
phosphorylation enrichment (EPHB2): 0.566

SH2 binding enrichment (c-Src SH2): 0.472
SH2 binding enrichment (SHP2-C SH2): 1.05
SH2 binding enrichment (Grb2 SH2): 0.664
Sequence: QEALEYFMKQV [PIK3CA_Y1038_M1043V]
phosphorylation enrichment (FGFR3): 0.565
phosphorylation enrichment (FGFR1): 0.408
phosphorylation enrichment (AncSZ): 1.18
phosphorylation enrichment (Jak2): 0.849
phosphorylation enrichment (MERTK): 0.289
phosphorylation enrichment (Hck): 0.416
phosphorylation enrichment (Fer (mouse)): 0.402
phosphorylation enrichment (Fyn): 0.382
phosphorylation enrichment (c-Src): 0.463
phosphorylation enrichment (c-Abl (mouse)): 0.597
phosphorylation enrichment (EPHB1): 0.467
phosphorylation enrichment (Fes): 0.978
phosphorylation enrichment (EPHB2): 0.392

SH2 binding enrichment (c-Src SH2): 2.41
SH2 binding enrichment (SHP2-C SH2): 0.564
SH2 binding enrichment (Grb2 SH2): 0.733
Sequence: YEEDSYSHIMA [FDPS_Y388]
phosphorylation enrichment (FGFR3): 1.18
phosphorylation enrichment (FGFR1): 1.35
phosphorylation enrichment (AncSZ): 1.85
phosphorylation enrichment (Jak2): 1.06
phosphorylation enrichment (MERTK): 0.561
phosphorylation enrichment (Hck): 0.976
phosphorylation enrichment (Fer (mouse)): 1.48
phosphorylation enrichment (Fyn): 0.64
phosphorylation enrichment (c-Src): 0.813
phosphorylation enrichment (c-Abl (mouse)): 0.663
phosphorylation enrichment (EPHB1): 0.67
phosphorylation enrichment (Fes): 1.26
phosphorylation enrichment (EPHB2): 0.714

SH2 binding enrichment (c-Src SH2): 0.456
SH2 binding enrichment (SHP2-C SH2): 0.439
SH2 binding enrichment (Grb2 SH2): 0.823
Sequence: AQESNYRLLRR [SLC20A2_Y377]
phosphorylation enrichment (FGFR3): 0.527
phosphorylation enrichment (FGFR1): 0.409
phosphorylation enrichment (AncSZ): 0.738
phosphorylation enrichment (Jak2): 0.593
phosphorylation enrichment (MERTK): 0.406
phosphorylation enrichment (Hck): 0.443
phosphorylation enrichment (Fer (mouse)): 0.414
phosphorylation enrichment (Fyn): 0.45
phosphorylation enrichment (c-Src): 0.365
phosphorylation enrichment (c-Abl (mouse)): 0.984
phosphorylation enrichment (EPHB1): 0.48
phosphorylation enrichment (Fes): 0.688
phosphorylation enrichment (EPHB2): 0.498

SH2 binding enrichment (c-Src SH2): 0.57
SH2 binding enrichment (SHP2-C SH2): 0.734
SH2 binding enrichment (Grb2 SH2): 0.851
Sequence: KVALVYGQMNE [ATP5F1B_Y269]
phosphorylation enrichment (FGFR3): 0.606
phosphorylation enrichment (FGFR1): 0.443
phosphorylation enrichment (AncSZ): 0.785
phosphorylation enrichment (Jak2): 0.769
phosphorylation enrichment (MERTK): 0.38
phosphorylation enrichment (Hck): 1.05
phosphorylation enrichment (Fer (mouse)): 0.525
phosphorylation enrichment (Fyn): 1.47
phosphorylation enrichment (c-Src): 1.97
phosphorylation enrichment (c-Abl (mouse)): 0.65
phosphorylation enrichment (EPHB1): 0.446
phosphorylation enrichment (Fes): 1.13
phosphorylation enrichment (EPHB2): 0.495

SH2 binding enrichment (c-Src SH2): 0.458
SH2 binding enrichment (SHP2-C SH2): 0.793
SH2 binding enrichment (Grb2 SH2): 0.53
Sequence: HEEDNYIELIP [NWD2_Y566]
phosphorylation enrichment (FGFR3): 5.2
phosphorylation enrichment (FGFR1): 6.02
phosphorylation enrichment (AncSZ): 3.19
phosphorylation enrichment (Jak2): 2.21
phosphorylation enrichment (MERTK): 1.33
phosphorylation enrichment (Hck): 1.02
phosphorylation enrichment (Fer (mouse)): 1.27
phosphorylation enrichment (Fyn): 0.905
phosphorylation enrichment (c-Src): 1.3
phosphorylation enrichment (c-Abl (mouse)): 1.89
phosphorylation enrichment (EPHB1): 2.98
phosphorylation enrichment (Fes): 2.29
phosphorylation enrichment (EPHB2): 1.91

SH2 binding enrichment (c-Src SH2): 0.932
SH2 binding enrichment (SHP2-C SH2): 1.75
SH2 binding enrichment (Grb2 SH2): 0.874
Sequence: TQKLAYVELQQ [CENPF_Y700_M701V]
phosphorylation enrichment (FGFR3): 0.643
phosphorylation enrichment (FGFR1): 0.754
phosphorylation enrichment (AncSZ): 1.07
phosphorylation enrichment (Jak2): 0.904
phosphorylation enrichment (MERTK): 0.395
phosphorylation enrichment (Hck): 0.453
phosphorylation enrichment (Fer (mouse)): 0.449
phosphorylation enrichment (Fyn): 0.445
phosphorylation enrichment (c-Src): 0.525
phosphorylation enrichment (c-Abl (mouse)): 1.03
phosphorylation enrichment (EPHB1): 0.507
phosphorylation enrichment (Fes): 1
phosphorylation enrichment (EPHB2): 0.561

SH2 binding enrichment (c-Src SH2): 0.987
SH2 binding enrichment (SHP2-C SH2): 0.658
SH2 binding enrichment (Grb2 SH2): 0.88
Sequence: SVVVPYEPPEF [TP53_Y220_V225F]
phosphorylation enrichment (FGFR3): 0.598
phosphorylation enrichment (FGFR1): 0.49
phosphorylation enrichment (AncSZ): 1.01
phosphorylation enrichment (Jak2): 0.993
phosphorylation enrichment (MERTK): 0.374
phosphorylation enrichment (Hck): 0.461
phosphorylation enrichment (Fer (mouse)): 0.449
phosphorylation enrichment (Fyn): 0.427
phosphorylation enrichment (c-Src): 0.509
phosphorylation enrichment (c-Abl (mouse)): 0.743
phosphorylation enrichment (EPHB1): 0.558
phosphorylation enrichment (Fes): 1.05
phosphorylation enrichment (EPHB2): 0.524

SH2 binding enrichment (c-Src SH2): 0.584
SH2 binding enrichment (SHP2-C SH2): 0.764
SH2 binding enrichment (Grb2 SH2): 0.769
Sequence: SAPDSYIGIGN [SLC38A4_Y27]
phosphorylation enrichment (FGFR3): 0.556
phosphorylation enrichment (FGFR1): 0.502
phosphorylation enrichment (AncSZ): 0.669
phosphorylation enrichment (Jak2): 0.739
phosphorylation enrichment (MERTK): 0.59
phosphorylation enrichment (Hck): 0.495
phosphorylation enrichment (Fer (mouse)): 0.404
phosphorylation enrichment (Fyn): 0.511
phosphorylation enrichment (c-Src): 0.437
phosphorylation enrichment (c-Abl (mouse)): 0.594
phosphorylation enrichment (EPHB1): 0.484
phosphorylation enrichment (Fes): 0.742
phosphorylation enrichment (EPHB2): 0.533

SH2 binding enrichment (c-Src SH2): 1.97
SH2 binding enrichment (SHP2-C SH2): 1.48
SH2 binding enrichment (Grb2 SH2): 1.78
Sequence: WKGSWYSMRKM [FGB_Y475]
phosphorylation enrichment (FGFR3): 0.716
phosphorylation enrichment (FGFR1): 0.676
phosphorylation enrichment (AncSZ): 1.07
phosphorylation enrichment (Jak2): 0.847
phosphorylation enrichment (MERTK): 0.499
phosphorylation enrichment (Hck): 0.523
phosphorylation enrichment (Fer (mouse)): 0.473
phosphorylation enrichment (Fyn): 0.49
phosphorylation enrichment (c-Src): 0.538
phosphorylation enrichment (c-Abl (mouse)): 0.71
phosphorylation enrichment (EPHB1): 0.588
phosphorylation enrichment (Fes): 1.11
phosphorylation enrichment (EPHB2): 0.513

SH2 binding enrichment (c-Src SH2): 0.646
SH2 binding enrichment (SHP2-C SH2): 0.942
SH2 binding enrichment (Grb2 SH2): 0.988
Sequence: KNSSIYVVANI [VNN1_Y134_N131S]
phosphorylation enrichment (FGFR3): 0.873
phosphorylation enrichment (FGFR1): 0.528
phosphorylation enrichment (AncSZ): 1.23
phosphorylation enrichment (Jak2): 1.31
phosphorylation enrichment (MERTK): 0.751
phosphorylation enrichment (Hck): 0.662
phosphorylation enrichment (Fer (mouse)): 0.622
phosphorylation enrichment (Fyn): 0.567
phosphorylation enrichment (c-Src): 0.691
phosphorylation enrichment (c-Abl (mouse)): 1.07
phosphorylation enrichment (EPHB1): 0.681
phosphorylation enrichment (Fes): 1.38
phosphorylation enrichment (EPHB2): 0.64

SH2 binding enrichment (c-Src SH2): 0.452
SH2 binding enrichment (SHP2-C SH2): 0.722
SH2 binding enrichment (Grb2 SH2): 0.645
Sequence: VRFMANTDETF [F8_Y450_Y450N]
phosphorylation enrichment (FGFR3): 0.653
phosphorylation enrichment (FGFR1): 0.439
phosphorylation enrichment (AncSZ): 0.928
phosphorylation enrichment (Jak2): 0.849
phosphorylation enrichment (MERTK): 0.408
phosphorylation enrichment (Hck): 0.462
phosphorylation enrichment (Fer (mouse)): 0.436
phosphorylation enrichment (Fyn): 0.408
phosphorylation enrichment (c-Src): 0.44
phosphorylation enrichment (c-Abl (mouse)): 0.604
phosphorylation enrichment (EPHB1): 0.701
phosphorylation enrichment (Fes): 1.12
phosphorylation enrichment (EPHB2): 0.568

SH2 binding enrichment (c-Src SH2): 0.925
SH2 binding enrichment (SHP2-C SH2): 0.812
SH2 binding enrichment (Grb2 SH2): 1.06
Sequence: TVQVAYYTVMM [SPATA17_Y83_M86V]
phosphorylation enrichment (FGFR3): 4.63
phosphorylation enrichment (FGFR1): 5.72
phosphorylation enrichment (AncSZ): 1.52
phosphorylation enrichment (Jak2): 2.57
phosphorylation enrichment (MERTK): 5.44
phosphorylation enrichment (Hck): 1.74
phosphorylation enrichment (Fer (mouse)): 1.59
phosphorylation enrichment (Fyn): 1.59
phosphorylation enrichment (c-Src): 2.09
phosphorylation enrichment (c-Abl (mouse)): 0.972
phosphorylation enrichment (EPHB1): 2.96
phosphorylation enrichment (Fes): 1.5
phosphorylation enrichment (EPHB2): 1.61

SH2 binding enrichment (c-Src SH2): 0.38
SH2 binding enrichment (SHP2-C SH2): 0.581
SH2 binding enrichment (Grb2 SH2): 0.713
Sequence: GPKSTYISSAG [GOLGA5_Y62_A67G]
phosphorylation enrichment (FGFR3): 0.374
phosphorylation enrichment (FGFR1): 0.326
phosphorylation enrichment (AncSZ): 0.496
phosphorylation enrichment (Jak2): 0.411
phosphorylation enrichment (MERTK): 0.389
phosphorylation enrichment (Hck): 0.319
phosphorylation enrichment (Fer (mouse)): 0.345
phosphorylation enrichment (Fyn): 0.395
phosphorylation enrichment (c-Src): 0.365
phosphorylation enrichment (c-Abl (mouse)): 0.464
phosphorylation enrichment (EPHB1): 0.298
phosphorylation enrichment (Fes): 0.587
phosphorylation enrichment (EPHB2): 0.382

SH2 binding enrichment (c-Src SH2): 5.44
SH2 binding enrichment (SHP2-C SH2): 0.703
SH2 binding enrichment (Grb2 SH2): 1.39
Sequence: LSDGPYSNPYE [EPOR_Y485]
phosphorylation enrichment (Jak2): 3.98
phosphorylation enrichment (c-Src): 3.36
phosphorylation enrichment (c-Abl (mouse)): 3.22

From the supplement of paper PMC10065799, “High-throughput profiling of sequence recognition by tyrosine kinases and SH2 domains using bacterial peptide display” (eLife, 2023)
